Reference: the supplement of paper PMC10126150
± gives the standard deviation of the averaged measurements.

Test system: ATP
Experiment: switch fluorescence ratio, 500 uM ATP over buffer (Cy3 cluster intensity, sum of 5 cycles each) (fold (ratio)); higher = stronger signal-on switching upon ATP binding; sequences stand for … in TCGTCGGCAGCGTCAGATGTGTATAAGAGACAGTTTTTTTTTTTTTTTTTTTTTTTTT…TC
Details: aptamer strand: ATP DNA aptamer (quencher-CACCTGGGGGAGTATTGCGGAGGAAGG + anchor), 100 nM annealed; ATP concentration: 500 uM
Summary of the method: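 After annealing to 100 nM quencher-labelled ATP aptamer, Cy3-labelled switching-strand clusters on a modified Illumina MiSeq flow-cell were imaged in selection buffer. A second image followed after 15 min with 500 uM ATP at 22 °C, and five such buffer/ATP cycles were done, each separated by NaOH stripping and re-annealing. The fluorescence ratio, averaged per switch-domain sequence, is summed target-cycle over summed buffer-cycle Cy3 intensity per cluster, with clusters outside 100-1000 RFU excluded.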
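Note: ATP exposure 15 min at 22 °C before imaging.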

Row | Sequence | switch fluorescence ratio
1 | GCTGATACGG | 1.07 ± 0.027
2 | GCTGATATGG | 1.02 ± 0.054
3 | GCTGATCGTA | 0.9915 ± 0.0057
4 | GCTGATTAG | 0.954 ± 0.011
5 | GCTGCACGGG | 1.01 ± 0.03
6 | GCTGCAGCGC | 1.005 ± 0.0042
7 | GCTGCCAACC | 1.11 ± 0.031
8 | GCTGGAAAGG | 1.01 ± 0.079
9 | GCTGGAACTG | 1.06 ± 0.14
10 | GCTGGAAGCA | 0.986 ± 0.078
11 | GCTGGAATGG | 1.06 ± 0.015
12 | GCTGGAGCCA | 1.03 ± 0.019
13 | GCTGGAGGGT | 0.997 ± 0.019
14 | GCTGGATGGC | 0.993 ± 0.025
15 | GCTGGCTTGC | 0.988 ± 0.021
16 | GCTGGGACAC | 1.04 ± 0.012
17 | GCTGGGAGTT | 1 ± 0.054
18 | GCTGGGCGAT | 0.961 ± 0.032
19 | GCTGGGCGGA | 1.04 ± 0.039
20 | GCTGGGGATT | 0.987 ± 0.02
21 | GCTGGGGGCT | 1.008 ± 0.0076
22 | GCTGGGTAAC | 1.006 ± 0.0034

Row | Sequence | switch fluorescence ratio
23 | GCTGGGTGCA | 0.9719 ± 0.0016
24 | GCTGGGTTGC | 1.01 ± 0.024
25 | GCTGGGTTGG | 1 ± 0.026
26 | GCTGGTATAT | 1.01 ± 0.016
27 | GCTGGTCGCC | 1.005 ± 0.01
28 | GCTGGTTTCG | 1.033 ± 0.0054
29 | GCTGTAACG | 1 ± 0.042
30 | GCTGTAACTG | 1.08 ± 0.017
31 | GCTGTAATTT | 0.998 ± 0.056
32 | GCTGTACGCG | 1.03 ± 0.029
33 | GCTGTAGAAG | 0.9951 ± 0.0056
34 | GCTGTAGGGG | 1.02 ± 0.081
35 | GCTGTATTTA | 0.974 ± 0.024
36 | GCTGTCAATC | 1.11 ± 0.053
37 | GCTGTCGCTT | 1.03 ± 0.027
38 | GCTGTGGGTA | 0.989 ± 0.01
39 | GCTGTTGTTG | 0.9918 ± 0.0051
40 | GCTTAAGGCG | 0.991 ± 0.051
41 | GCTTAAGGCT | 1 ± 0.022
42 | GCTTACAGGC | 1.04 ± 0.048
43 | GCTTACGGGG | 1.04 ± 0.049
44 | GCTTACTCAT | 1.09 ± 0.043

Row | Sequence | switch fluorescence ratio
45 | GCTTATTTAA | 0.99 ± 0.021
46 | GCTTCAAGTC | 0.978 ± 0.018
47 | GCTTCAAGTT | 0.985 ± 0.027
48 | GCTTCCTTGG | 1.31 ± 0.079
49 | GCTTCGGCCT | 1.02 ± 0.058
50 | GCTTCGGCGC | 1.03 ± 0.046
51 | GCTTCGTGTT | 1.05 ± 0.003
52 | GCTTGAGGGA | 0.984 ± 0.042
53 | GCTTGAGGGG | 1.012 ± 0.0022
54 | GCTTGCGGGA | 1.03 ± 0.019
55 | GCTTGCGGTC | 0.9873 ± 0.0095
56 | GCTTGGACTA | 0.967 ± 0.011
57 | GCTTGGGGTT | 0.98 ± 0.021
58 | GCTTGTATTT | 1 ± 0.014
59 | GCTTGTGAGG | 1.02 ± 0.022
60 | GCTTGTTAAA | 0.994 ± 0.037
61 | GCTTTACTGT | 1.01 ± 0.013
62 | GCTTTAGTTC | 1.03 ± 0.003
63 | GCTTTATAGG | 1 ± 0.016
64 | GCTTTATAGT | 0.985 ± 0.049
65 | GCTTTATGCT | 0.9714 ± 0.0025
66 | GCTTTATTTA | 0.992 ± 0.053

Row | Sequence | switch fluorescence ratio
67 | GCTTTCTCGT | 1.03 ± 0.029
68 | GCTTTGAATG | 1.011 ± 0.005
69 | GCTTTGGATA | 1.04 ± 0.055
70 | GCTTTGGCTA | 1.02 ± 0.036
71 | GCTTTGGGCA | 0.9992 ± 0.0067
72 | GCTTTGTGTA | 1.01 ± 0.049
73 | GCTTTTACGG | 1.07 ± 0.016
74 | GCTTTTGGGG | 1.03 ± 0.087
75 | GCTTTTGGGT | 1 ± 0.025
76 | GCTTTTGTAC | 1.05 ± 0.05
77 | GCTTTTTAGG | 0.964 ± 0.024
78 | GCTTTTTTTG | 1.017 ± 0.0079
79 | GGAAAAAATA | 1.001 ± 0.0072
80 | GGAAAATCAA | 0.9812 ± 0.0078
81 | GGAAAATTAA | 1 ± 0.033
82 | GGAAACGGGG | 1.001 ± 0.0064
83 | GGAAAGAACA | 0.9817 ± 0.0079
84 | GGAAAGAGTT | 1.07 ± 0.056
85 | GGAAAGATAG | 1.022 ± 0.0046
